Measured values published in patent publication US20160264669A1 (ARGEN X N V, published 2016).
Numbering of substitutions follows the chain as printed. Numbers in names are those of the source. Values belong to the binder of their own block, whether it stands above or below them.

How the values were obtained:
[1] = target: T1, biotinylated hCD16a (Sino Biological Inc., 10389-H27H1-B) (human, UniProt P08637 17-208, biotinylated (site not stated)); experiment: ELISA; biotinylated hCD16a captured on neutravidin plate, anti-human Fc-HRP detection
T1 construct: Purchased reagent; also called human CD16a
T1 sequence (P08637 17-208 limits assumed): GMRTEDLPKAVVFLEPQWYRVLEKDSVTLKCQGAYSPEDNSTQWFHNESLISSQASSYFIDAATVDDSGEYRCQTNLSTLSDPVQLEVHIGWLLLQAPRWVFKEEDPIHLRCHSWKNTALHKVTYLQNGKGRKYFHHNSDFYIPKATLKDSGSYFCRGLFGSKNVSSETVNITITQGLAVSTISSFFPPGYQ
Procedure: (§1) Specifically, a Maxisorp plate was coated with 100 ng/well of Neutravidin Biotin-binding Protein (ThermoScientific, 31000) and incubated overnight at 4° C. The following day, the plate was blocked with PBS+1% casein for 2 hours at room temperature. […] Binding to hCD16a was detected using an HRP-conjugated polyclonal goat anti-human Fc antibody (Jackson ImmunoResearch, 109-035-008) (incubation 1 hour at RT, dilution 1/50,000 in PBS+0.1% casein), followed by addition of 100 μl room temperature-equilibrated TMB (SDT-reagents #s TMB). Plates were incubated for 10 minutes prior to addition of 100 μl 0.5N H₂SO₄ and OD450 nm measurement. EC50 values were determined using GraphPad Prism software.

[2] = target: T1, biotinylated hCD16a (Sino Biological …); experiment: ELISA; biotinylated hCD16a captured on neutravidin plate; reference is fucosylated Fc-Abdeg
Procedure: as §1

[3] = target: T2, murine CD16-2 (Sino Biological Inc., 50036-M27H-B) (murine, UniProt A0A0B4J1G0 21-203, Probably biotinylated on the vendor's tag (catalogue suffix -B); not carried in the letters); experiment: ELISA on murine CD16-2, procedure similar to the hCD16a ELISA
T2 construct: Purchased reagent; Biotinylation is only implied by 'a similar experimental procedure as described above'; also called mCD16-2
T2 sequence: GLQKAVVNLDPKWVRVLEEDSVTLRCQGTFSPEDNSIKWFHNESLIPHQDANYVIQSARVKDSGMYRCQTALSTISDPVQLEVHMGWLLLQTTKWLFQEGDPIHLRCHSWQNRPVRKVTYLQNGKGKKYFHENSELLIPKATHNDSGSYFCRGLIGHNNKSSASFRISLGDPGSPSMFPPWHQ
Procedure: as §1
Using a similar experimental procedure as described above, the binding affinity for murine CD16-2 (Sino Biological Inc., 50036-M27H-B) was determined.

EC50 [1]: 0.013 µM
fold increase in affinity vs Fc-Abdeg [2]: > 30 fold
EC50 [3]: 0.011 µM
B1: Fc-Abdeg-POT (other)
chain: DKTHTCPPCPAPELLGGPSVFLFPPKPKDTLYITREPEVTCVVVDVSHEDPEVKFNWYVDGVEVHNAKTKPREEQYNSTYRVVSVLTVLHQDWLNGKEYKCKVSNKALPAPIEKTISKAKGQPREPQVYTLPPSRDELTKNQVSLTCLVKGFYPSDIAVEWESNGQPENNYKTTPPVLDSDGSFFLYSKLTVDKSRWQQGNVFSCSVMHEALKFHYTQKSLSLSPGK
modifications: afucosylated (defucosylated) N-linked glycan
notes: also called afucosylated form of Fc-Abdeg; afucosylated variant

EC50 [3]: > 0.1 µM
B2: Fc-Abdeg (other)
chain: B1 chain
notes: Isolated variant human IgG Fc region with no variable region; Produced in CHO cells, fucosylated; also called wild-type Fc-Abdeg; fucosylated Fc-Abdeg

EC50 [1]: 0.006 µM
B3: Fc-Abdeg-S239D/I332E (other)
chain: B1 chain with S19D, I112E
notes: also called Fc-Abdeg-S239D/I332E variant
